What was measured:
[1] = molecular target: TBC1D23 C-terminal domain (mouse) (UniProt Q8K0F1); experiment: ITC; peptide (0.8 to 5 mM) titrated into 100 μM TBC1D23 C-terminal domain, 20°C, 100 mM NaCl, 100 mM tris pH 7.4, 1 mM TCEP, Nano ITC
[2] = molecular target: Mouse TBC1D23 (559-684), C-terminal domain (mouse) (UniProt Q8K0F1); experiment: ITC; peptide (0.8 to 5 mM) titrated into 100 uM TBC1D23 C-terminal domain, 20 injections of 2.4 ul; 20°C; 100 mM NaCl, 100 mM tris pH 7.4, 1 mM TCEP; mean of three runs
Chain of Mouse TBC1D23 (559-684), C-terminal domain (mouse) (Q8K0F1 559-684): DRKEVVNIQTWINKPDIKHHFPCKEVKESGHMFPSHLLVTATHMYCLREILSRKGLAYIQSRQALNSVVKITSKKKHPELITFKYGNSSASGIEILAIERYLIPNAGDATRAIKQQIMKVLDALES

Chain of TBC1D23 C-terminal domain (mouse) (Q8K0F1 559-684): as above

Substance | Kd [1] [µM] | stoichiometry N [1] | Kd [2] [µM]
KIAA0319 peptide (acidic TLY motif of the tail) | 35 |  | 
KIAA0319 peptide with the acidic TLY motif |  |  | 35.2
NPDC1 peptide (acidic TLY motif of the tail) | 3 |  | 
NPDC1 peptide with the acidic TLY motif |  |  | 2.9

The next lines start with the values.

Kd [1] [µM] | stoichiometry N [1] | Kd [2] [µM] | Substance
10.6 | 1 |  | CPD peptide (acidic TLY region, ITC)
16 |  |  | FAM174C peptide (TLY-like motif)
 |  | 15.7 | FAM174C peptide with the acidic TLY motif

— publication PMC11093223, “Cargo selective vesicle tethering: The structural basis for binding of specific cargo proteins by the Golgi tether component TBC1D23” (Science Advances, 2024)
